Laboratory results taken from patent publication US20200283528A1 (NUMAB THERAPEUTICS, published 2020).

T1: Fc tagged human PDL2 (human, UniProt Q9BQ51 20-219)
T1 construct: not shown: Fc tag
T1 sequence (looked up): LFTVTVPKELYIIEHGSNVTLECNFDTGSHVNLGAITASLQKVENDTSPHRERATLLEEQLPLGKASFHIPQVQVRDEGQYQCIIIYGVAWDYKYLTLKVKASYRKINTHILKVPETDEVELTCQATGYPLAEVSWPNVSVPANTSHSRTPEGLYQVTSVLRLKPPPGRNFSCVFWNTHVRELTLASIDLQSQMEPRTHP


Assays:
[1] = target: T2, human PDL1 expressed on cells (human, UniProt Q9NZQ7 19-290); experiment: cell-based or functional assay
[2] = target: T3, human PDL1 (recombinant, soluble) (human, UniProt Q9NZQ7 19-238); experiment: PDL1/PD-1 competition ELISA; PD-1 coated; scFv
T3 construct: also called hPDL1; hPD-L1
Protocol: (§1) ELISA plates were coated by adding 50 μl of PBS containing 4 μg/ml PD-1 overnight at 4° C. Next day, plates were washed three times in overflow mode with 450 μl wash buffer (PBS, 0.005% Tween 20) per wells and 300 μl of blocking buffer (PBS, 1% BSA, 0.2% Tween 20) were added to each well for 1 h at RT on a nutating mixer. […] ELISA pates were washed 3 times in overflow mode with 450 μl wash buffer and two times 50 μl of each dilution was added in adjacent wells of the ELISA plates in order to generate duplicates. Plates were incubated 90 minutes at RT under gentle agitation. After three washes with 450 μl of washing buffer, 50 μl of 10 ng/ml streptavidin-polyHRP40 were added to each wells of the ELISA plates. After 1 h incubation at RT, plates were washed three times with 450 μl wash buffer and developed for 5 to 10 minutes after addition of 50 μl TMB. Finally, the enzymatic reaction was stopped by addition of 50 μl of 1 M HCl and plate was read at 450 nm using 690 nm as a reference wavelength.

[3] = target: T3, human PDL1 (recombinant, soluble); experiment: PDL1/B7-1 competition ELISA; B7-1 coated; scFv
Protocol: as §1, with “μg/ml B7-1” for “μg/ml PD-1”, “of” for “of 10 ng/ml”, “streptavidin-polyHRP40 was” for “streptavidin-polyHRP40 were”, “ELISA plate.” for “ELISA plates.”

Fc tagged human PDL1 [4] = target: T4, Fc tagged human PDL1 (human, UniProt Q9NZQ7 19-238); experiment: SPR Biacore T200; Fc tagged PDL1 captured; scFv 0.12-30 nM
T4 construct: also called PDL1-Fc chimeric protein (human); not shown: Fc tag
Protocol: (§2) After each analyte injection cycle, the CM5 sensor chip was regenerated and new antigen was captured. The scFvs were injected as analyte using a dose response multicycle kinetic assay with concentrations of the analyte ranging from 0.12 to 30 nM diluted in running buffer for 5 min and dissociation of the protein was allowed to proceed for 12 min. Obtained sensorgrams were fitted using the 1:1 binding model.

Fc tagged human PDL2 = target: T1, Fc tagged human PDL2; experiment: SPR Biacore T200; Fc tagged human PDL2 captured; scFv as analyte
Protocol: Humanized scFvs were tested for binding to PDL2 by SPR analysis on a T200 device (Biacore, GE Healthcare). In this experiment, Fc tagged human PDL2 was captured using the Human Antibody Capture kit from GE healthcare. After each analyte injection cycle the CM5 sensor chip was regenerated and new antigen was captured. The scFvs were injected as analyte at a concentration of 180 nM diluted in running buffer for 5 min and dissociation of the protein was allowed to proceed for 12 min.

[5] = target: cynomolgus PDL1, recombinant (Sino Biological) / PDL1-Fc chimeric protein (cynomolgus (Macaca fascicularis), UniProt G7PSE7 19-238); experiment: SPR Biacore T200; cynomolgus PDL1 (Sino Biological) captured; scFv as analyte
Protocol: as §2

[6] = target: T2, human PDL1 expressed on cells; experiment: cell-based or functional assay; remark: listed apart in the source
[7] = target: T2, human PDL1 expressed on cells; experiment: cell-based or functional assay; remark: listed apart in the source
[8] = target: T2, human PDL1 expressed on cells; experiment: cell-based or functional assay; remark: listed apart in the source
Fc tagged human PDL1 [9] = target: T4, Fc tagged human PDL1; experiment: SPR Biacore T200; PDL1-Fc captured
Protocol: (§3) An antibody specific for the Fc region of human IgGs was immobilized on a sensor chip (CM5 sensor chip, GE Healthcare) by amine-coupling. […] After each injection cycle, surfaces were regenerated with one injection of a 3 M MgCl₂ solution. The apparent dissociation (kd) and association (kₐ) rate constants and the apparent dissociation equilibrium constant (KD) were calculated using one-to-one Langmuir binding model.

Fc tagged human PDL1 [10] = target: T4, Fc tagged human PDL1; experiment: SPR Biacore T200; PDL1-Fc captured; molecule 0.12-90 nM
Protocol: as §3

[11] = target: T3, human PDL1 (recombinant, soluble); experiment: PDL1/PD-1 competition ELISA; PD-1 coated, biotinylated PDL1 1 ng/ml
Protocol: (§4) ELISA microplates coated overnight at 4° C. with 4 μg/ml human PD-1 were washed three times with 450 μl wash buffer per well. Plates were blocked for 1 hour at room temperature by adding 300 μl of PBS with 1% BSA and 0.2% tween (dilution buffer) to each well. […] The mixtures were pre-incubated for 1 hour at room temperature under gentle agitation on a rotating mixer (21 rpm) and added to the microplates after 3 wash cycles with 450 μl wash buffer per well. Plates were incubated for 1.5 hours at room temperature under gentle agitation, then 10 ng/ml streptavidin-polyHRP40 was added to each microplate well after three washes with 450 μl of wash buffer per well. After 1 h incubation at RT, plates were washed three times with 450 μl wash buffer and TMB substrate solution was added. The enzymatic reaction was stopped after 6 minutes by addition of 1 M HCl and absorbance was measured at 450 nm using 690 nm as a reference wavelength. For calculation of IC₅₀ values, a four-parameter logistic (4PL) curve fit was performed in Graph Pad Prism using reference subtracted values.

[12] = target: T3, human PDL1 (recombinant, soluble); experiment: PDL1/B7-1 competition ELISA; B7-1 coated, biotinylated PDL1 40 ng/ml
Protocol: as §4, with “B7-1” for “PD-1”

cynomolgus PDL1, recombinant (Sino Biological) / PDL1-Fc chimeric protein, sequence (G7PSE7 entry or part of it mutant limits assumed): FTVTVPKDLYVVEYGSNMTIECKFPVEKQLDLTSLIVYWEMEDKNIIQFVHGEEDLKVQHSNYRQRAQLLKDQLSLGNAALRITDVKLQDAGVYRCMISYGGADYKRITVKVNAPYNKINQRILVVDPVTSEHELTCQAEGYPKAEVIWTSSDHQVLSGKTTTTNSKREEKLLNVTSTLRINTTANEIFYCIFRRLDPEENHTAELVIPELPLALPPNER

| reporter gene assay IC50 [1] [ng/mL] | reporter gene assay Maximum Inhibition (%) [1] [%] | IC50 [2] [ng/mL] | Maximum Inhibition (%) [2] [%] | IC50 [3] [ng/mL] | Maximum Inhibition (%) [3] [%] | Kd (Fc tagged human PDL1 [4]) [pM] | koff (Fc tagged human PDL1 [4]) [s⁻¹] | kon (Fc tagged human PDL1 [4]) [M⁻¹ s⁻¹] | KD, cyno/KD, human [5] | Kd [5] [pM] | kon [5] [M⁻¹ s⁻¹] | NF-AT potency assay IC50 [7] [ng/mL] | IL-2 secretion of SEA stimulated PBMC, EC50 in ng/ml [8] [ng/mL] | Kd (Fc tagged human PDL1 [10]) [pM] | IC50 [11] [ng/mL] | IC50 [12] [ng/mL] | Binder | further results |
| --- | --- | --- | --- | --- | --- | --- | --- | --- | --- | --- | --- | --- | --- | --- | --- | --- | --- | --- |
| 12 | 96.7 | 0.47 | 99.9 | 1.19 | 93.2 | 9.94 | 6.16e-05 | 6.19e+06 | 2 | 19.9 | 4.45e+06 |  |  |  |  |  | PRO1392 (33-03-G02-sc18 scFv) (scFv) scFv: DIQMTQSPSSLSASVGDRVTITCQASQSINDYLAWYQQKPGKAPKLLIYKASTLASGVPSRFSGSGSGTDFTLTISSLQPEDFATYYCQQGYIITDIDNVFGTGTKVTVLGGGGGSGGGGSGGGGSGGGGSQVQLQESGPGLVKPSETLSLTCKASGFSFSSGYDMCWVRQPPGKGLEWIACVVAGSVDITYYASWAKGRVTISKDSSKNQVSLKLSSVTAADTAVYYCARKDAYSDAFNLWGQGTLVTVSS | binding result (Fc tagged human PDL2): no binding (tested: 180 nM); koff [5]: 8.87e-05 s⁻¹ |
| 8.02 | 95.3 | 0.33 | 100 | 1.21 | 93.1 | 5.94 | 4.02e-05 | 6.76e+06 | < 0.28 | < 1.68 | 5.96e+06 | 11.1 | 40.9 | 1.7 | 0.5 | 6.36 | PRO997/PRO908 (37-20-B03-sc01 scFv) (scFv, VL-linker-VH, VH4 CDR graft; PRO997 was made in CHO-S cells, PRO908 in bacteria; also called 37-20-B03 CDR) scFv: DIQMTQSPSSLSASVGDRVTITCQASQSIGTYLAWYQQKPGKAPKLLIYRAFILASGVPSRFSGSGSGTDFTLTISSLQPEDFATYYCQSNFYSDSTTIGPNAFGTGTKVTVLGGGGGSGGGGSGGGGSGGGGSQVQLQESGPGLVKPSETLSLTCKVSGFSFNSDYWIYWIRQPPGKGLEWIGSIYGGSSGNTQYASWAQGRVTISVDSSKNQFSLKLSSVTAADTAVYYCARGYVDYGGATDLWGQGTLVTVSS | NFAT reporter gene assay, fold potency of VH4 graft (PRO997) against VH1 graft (PRO1013) [6]: ~2 fold; fold higher affinity against the STR graft of clone 33-03-G02 (Fc tagged human PDL1 [9]): ~2 fold |
|  |  |  |  |  |  |  |  |  |  |  |  | 137 | 39.9 |  | 8.35 | 12.2 | PRO885 (38-02-A04 sc01 scDb-i/33-03-G02 sc01 scDb-o) (bispecific antibody) DIQMTQSPSSLSASVGDRVTITCQASQSINDYLAWYQQKPGKAPKLLIYKASTLASGVPSRFSGSGSGTDFTLTISSLQPEDFATYYCQQGYIITDIDNVFGTGTKVTVLGGGGGSQVQLQESGPGLVKPSETLSLTCKVSGFSFSNSYWICWIRQPPGKGLEWIGCTFVGSSDSTYYANWAKGRVTISVDSSKNQFSLKLSSVTAADTAVYYCARHPSDAVYGYANNLWGQGTLVTVSSGGGGSGGGGSGGGGSGGGGSIQMTQSPSSLSASVGDRVTITCQASQSINNVLAWYQQKPGKAPKLLIYRASTLASGVPSRFSGSGSGTDFTLTISSLQPEDFATYYCQSSYGNYGDFGTGTKVTVLGGGGGSQVQLQESGPGLVKPSETLSLTCKVSGFSFSSGYDMCWIRQPPGKGLEWIGCVVAGSVDITYYASWAKGRVTISVDSSKNQFSLKLSSVTAADTAVYYCARKDAYSDAFNLWGQGTLVTVSS |  |
|  |  |  |  |  |  |  |  |  |  |  |  |  |  | 3.5 | 1.28 |  | PRO1126 (38-02-A04 sc01 scDb-i/33_03_G02 sc03 Full scDb-o) (bispecific antibody) DFQLTQSPSSLSASVGDRVTITCQASQSINDYLAWYQQKPGKSPKLLIYKASTLASGVPSRFSGSGSGTDFTLTISSLQPEDFATYYCQQGYIITDIDNVFGTGTKVTVLGGGGGSQVQLQESGPGLVKPSETLSLTCKVSGFSFSNSYWICWIRQPPGKGLEWIGCTFVGSSDSTYYANWAKGRVTISVDSSKNQFSLKLSSVTAADTAVYYCARHPSDAVYGYANNLWGQGTLVTVSSGGGGSGGGGSGGGGSGGGGSIQMTQSPSSLSASVGDRVTITCQASQSINNVLAWYQQKPGKAPKLLIYRASTLASGVPSRFSGSGSGTDFTLTISSLQPEDFATYYCQSSYGNYGDFGTGTKVTVLGGGGGSQSQLQESGPGLVKPSETLSLTCKASGFSFSSGYDMCWVRQPPGKGLEWIACVVAGSVDITYYASWAKGRVTISKDSSKNQVSLKLSSVTAADTAVYFCARKDAYSDAFNLWGQGTLVTVSS | NFAT reporter gene assay IC50 [6]: 48.1 ng/mL; NFAT reporter gene assay, improvement of neutralization potency against PRO885 [6]: 3 fold; fold improvement in affinity against the CDR graft (PRO885) (Fc tagged human PDL1 [9]): 20 fold |
